# From patent US20210198366A1
# Changes are numbered by the printed parent chain.
# T1: cynomolgus monkey B7-H7 (soluble analyte in SPR) (cynomolgus monkey)
# T1 sequence: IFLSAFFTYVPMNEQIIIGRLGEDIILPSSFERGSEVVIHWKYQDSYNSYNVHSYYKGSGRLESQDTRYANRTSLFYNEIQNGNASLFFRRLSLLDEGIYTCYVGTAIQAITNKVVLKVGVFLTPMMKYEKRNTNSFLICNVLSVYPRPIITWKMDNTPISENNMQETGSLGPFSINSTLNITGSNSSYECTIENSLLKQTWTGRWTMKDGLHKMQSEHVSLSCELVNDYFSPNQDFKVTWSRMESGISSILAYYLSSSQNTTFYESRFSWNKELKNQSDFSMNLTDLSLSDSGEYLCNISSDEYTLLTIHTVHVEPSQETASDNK
# B1: humanized anti-B7-H7 antibody Hz2D7 (antibody, human IgG1, kappa, V domains shown)
# VH: QVQLVQSGAEVKKPGASVKVSCKTSGYTFTEYTMHWVRQAPGQGLEWMGGINPNNYGAPYNQKFKGRVTMTVDTSISTAYMELSRLRSDDTAVYYCASGGYYFDYWGQGTLVTVSS
# VL: DIQMTQSPSSLSASVGDRVTITCKASQDVGTAVAWYQQKPGKAPKLLIYWAFTRHTGVPSRFSGSGSGTDYTLTISSLQPEDFATYYCQQHYDTPFTFGQGTKVEIKR
# B2: anti-B7-H7 antibody 2D7 (antibody, V domains shown)
# VH: EVQLQQSGPELVKPGASVKISCKTSGYTFTEYTMHWVKQSHGKSLEWIGGINPNNYGAPYNQKFKGKATLTVDKSSNTAYMELRSLTSEDSAIYYCASGGYYFDYWGQGTTLTVSS
# VL: DIVMTQSHKFMSTSFGDRVSITCKASQDVGTAVAWYQQKLGQSPKLLISWAFTRHTGVPDRFTGSGSGTDYTLTISSLQAEDLALYYCQQHYDTPFTFGSGTKLEIK
# B3: chimeric 2D7 antibody comprising the murine heavy chain and light chain variable regions of 2D7 and a human Fc region (antibody, V domains shown)
# VH: B2 VH
# VL: B2 VL
# B4: anti-B7-H7 antibody 2F10 (antibody, V domains shown)
# VH: EIQLQQTGPELVKPGASLRISCKASGYSFTDYIIVWVKQNQGKNLDWIEKINPYYGTTTYNLRFEDKATLTVNKSSTTAYMQLNSLTSEDSAVYYCARWDYVSTLFAMDYWGQGTSITVSS
# VL: DIVMTQSHKVMSTSVGDRVSIICKASQDVGTAVAWYQQKPGQSPKLLIYWASTRHTGVPDRFTGSGSGTDFILTITNVQSENLANYFCQQYKRYYTFGGGTKLEIK
# B5: anti-B7-H7 antibody 28F5 (antibody, V domains shown)
# VH: QVQLKESGPGLVAPSQSLSITCTVSGFSLTGYGVNWVRQPPGKGLEWLGVIWGDGSTDYNSVLKSRLSISKDNSKSQVFLKMNSLQTDDTARYYCAREATEYLYWYFDVWGAGTTVTVSS
# VL: DIVLTQSPASLAVSLGQRATISCRASESVEYYGSSLMQWYQQKPGQPPKLLIFAASNVESGVPPRFSGSGSGTDFNLNIHPVDEDDIAMYFCQQGRRVPWTFGGGTKLEIK
# B6: anti-B7-H7 antibody 16D5 (antibody, V domains shown)
# VH: QVQLQQSAAELARPGASVKMSCKASGYTFTTYTMHWVKQRPGQGLEWIGYINPSRGYSDYSQKFQGKSTLTTDKSSNTAYIQLTSLTSEDSAVYFCARGGYDFDYWGQGTTLTVSS
# VL: DIVMTQSHKFMSTSVGDRVSITCKASQDVGTAVAWYQQKPGQSPKLLLYWASTRHTGVPDRFTGSGSGTDYTLTISSVQAEDLALYHCQQHFITPYTFGGGTKLEIK
# B7: anti-B7-H7 antibody 5F7 (antibody, V domains shown)
# VH: QEQLQQPGTELVKPGASVKISCKASGYTFSSYSMHWVKLTPGQGLEWMGTIYPGNENTSYNQKFKGKATLTADKSSSTAYMQLSSLTSEDSAVYYCARGGYYFDYWGQGTTLTVSS
# VL: B6 VL with M11L, G30S, L48I, P59S, Y71F, H87Y, I93D, T94I, T97W
# B8: anti-B7-H7 antibody 5C9 (antibody, V domains shown)
# VH: QVQLQQSGAELAKPGASVKMSCKASGYTFTSFWIHWIKQRPGQGLEWIGYIIPNTDYTEYNQKFKDKATFTADKSSSTAYMQLSSLTSEDSAVFYCARGLRGAYYFDYWGQGTTLTVSS
# VL: DIVLTQSPASLAVSLGLRATISCRSSQSVSTSTNGYMHWYQQKPGQPPKLLIMYASNLESGVPARFSGSGSGTDFTLNIHPVDEEDTATYYCQHSWVLPYTFGGGTKLEIK
# B9: anti-B7-H7 antibody 3H6 (antibody, V domains shown)
# VH: B2 VH with Y56G, N77S, I93V, S98R
# VL: B2 VL with F15V, G30S, L40S, S49Y, F52S, L78V, S100G
# B10: anti-B7-H7 antibody 1D3 (antibody, V domains shown)
# VH: EVQLQQSGPELEKPGASVKISCKASGYSFTGYNMNWVKESNGRSLEWIGNIDPYSGGSTYNQKFKGKATMTVDKSSSTAYMQLKSLTSEDSAVYYCARSVYDAPWLAHWGQGTLVTVSA
# VL: DIQMTQSPASLSASVGETVTITCRASENIYIYLAWYQQKQGKSPQLLVYNAKTLAEGVPSRFSGSGSGTQFSLKINRLQPEDFGNYYCQHHYGTPPTFGGGTKLEIK
# B11: anti-B7-H7 antibody 5B10 (antibody, V domains shown)
# VH: B10 VH with E39Q, R43K, M70L, Y80S, M81L, A92S, V100F, W105Y, A107T, H108Y
# VL: DIQMTQSPTSLSASVGETVTITCRASENIFIYLAWYQQKQGKSPQLLVFNAKTLAEGVPSRFSGSGSGTQFSLKINSLRPEDFGTYYCQHHYGTPPTFGGGTKLEV
# Molecular target: T1, cynomolgus monkey B7-H7 (soluble analyte in SPR) (cynomolgus monkey)
# Experiment: SPR (Biacore)
Kd [nM],koff [s⁻¹],Binder
0.4,7.6e-05,B1
0.65,0.00011,B2
0.14,3.5e-05,B3

# Molecular target: T1, cynomolgus monkey B7-H7 (soluble analyte in SPR) (cynomolgus monkey)
# Experiment: SPR (Biacore), antibody captured by anti-Fc on CM5 chip, B7-H7 injected, 37 C
row,Kd [nM],Binder
1,8.6,B4
2,4.5,B5
3,6.9,B6
4,1.2,B7
5,4.8,B8
6,0.6,B2
7,6.9,B9
8,3.2,B10
9,4.6,B11
